# Results as given in US12514920B1, “Respiratory syncytial virus mRNA vaccine, and preparation method therefor and use thereof” (Hangzhou Tianlong Pharmaceutical Co., Ltd., priority 2024, dated 2026).
# Numbering of substitutions follows the chain as printed.
# B1: YK-RSV-009 (protein)
# chain: QNITEEFYCSTCSAVSKGYLGALRTGWYTSVILIELSNIKENKCNGTDAKVKLIKQELDKYKNAVTDLQLLMQSTPATGSGSAIASGVAVSKVLHLEGEVNKIKSALLSTNKAVVSLSNGVSVLTFKVLDLKNYIDKQLLPIVNKQSCSIPNIETVIEFQQKNNRLLEITREFSVNAGVTTPVSTYMLTNSELLSLINDMPITNDQKKLMSNNVQIVRQQSYSIMSIIKEEVLAYVVQLPLYGVIDTPCWKLHTSPLCTTNTKEGSNICLTRTDRGWYCDNAGSVSFFPQAETCKVQSNRVFCDTMNSRTLPSEVNLCNVDIFNPKYDCKIMTSKTDVSSSVITSLGAIVSCYGKTKCTASNKNRGIIKTFSNGCDYVSNKGVDTVSVGNTLYYVNKQEGQSLYVKCEPIINFYDPLVFPSSEFDASISQVNEKINQSLAFIRKSDELLHNVNAGKSTTNIMITTIIIVIIVILLSLIAVGLLLY
# B2: YK-RSV-043 (protein)
# chain: B1 chain with C9Q, L33T, T75C, S86C, V143L, C407G, S422D
# B3: YK-RSV-010 (protein)
# chain: B1 chain with C9Q, S30C, L124C, C407G
# B4: YK-RSV-048 (protein)
# chain: QNITEEFYQSTCSAVSKGYLGALRTGWYTSVITIELSNIKENKCNGTDAKVKLIKQELDKYKNAVTDLQLLMQSTPATGSGSFLGFLCGVGSAIASGVAVSKVLHLEGEVNKIKSALLSTNKAVVSLSNGVSVLTFKVLDLKNYIDKQLLPILNKQSCSIPNIETVIEFQQKNNRLLEITREFSVNAGVTTPVSTYMLTNSELLSLINDMPITNDQKKLMSNNVQIVRQQSYSIMSIIKEEVLAYVVQLPLYGVIDTPCWKLHTSPLCTTNTKEGSNICLTRTDRGWYCDNAGSVSFFPQAETCKVQSNRVFCDTMCSRTLPSEVNLCNVDIFNPKYDCKIMTSKTDVSSSVITSLGAIVSCYGKTKCTASNKNRGIIKTFSNGCDYVSNKGVDTVSVGNTLYYVNKQEGQSLYVKGEPIINFYDPLVFPSDEFDASISQVNEKINQSLAFIRKSDELLHNVNAGKSTTNIMITTIIIVIIVILLSLIAVGLLLY
# B5: YK-RSV-050 (protein)
# chain: B4 chain with L87C, C88L
# Tested on: RSV pre-F antibody (3C12)
# Test: not given
# Format: physicochemical
# Settings: all stress tests; binding to 3C12, ELISA
# Outline: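 RSV F mRNA-vaccine mutants stress-treated: 4° C. for one week, 50° C. for 60 min, low or high osmotic pressure at room temperature for 60 min, acid or base at room temperature for 60 min. Binding to 3C12 (epitope Φ) then measured by ELISA against pre-F trimer standard, HRP anti-human IgG, OD 450/630 nm.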
row,Molecule,stability under the stress tests (in words)
1,B1,superior stability
2,B2,superior stability
3,B3,superior stability
4,B4,superior stability
5,B5,superior stability

# Same assay, conditions: high osmotic pressure 3000 mM, room temperature, 60 min; ELISA binding to 3C12
row,Molecule,"Stress resistance parameter, Osmotic pressure (mM) 3000"
1,B1,0.69 ± 0.15
2,B2,0.72 ± 0.09
3,B3,0.84 ± 0.11
4,B4,0.61 ± 0.17
5,B5,0.66 ± 0.15

# Same assay, conditions: incubation at 50° C. for 60 min; ELISA binding to 3C12
row,Molecule,"Stress resistance parameter, Temperature (° C.) 50"
1,B1,0.84 ± 0.04
2,B2,0.66 ± 0.06
3,B3,1.04 ± 0.09
4,B4,0.70 ± 0.07
5,B5,0.69 ± 0.15

# Same assay, conditions: low osmotic pressure 10 mM, room temperature, 60 min; ELISA binding to 3C12
row,Molecule,"Stress resistance parameter, Osmotic pressure (mM) 10"
1,B1,0.78 ± 0.15
2,B2,0.84 ± 0.18
3,B3,0.97 ± 0.07
4,B4,0.75 ± 0.00
5,B5,0.87 ± 0.19

# Same assay, conditions: pH 3.5, room temperature, 60 min; ELISA binding to 3C12
row,Molecule,"Stress resistance parameter, pH 3.5"
1,B1,0.60 ± 0.14
2,B2,0.90 ± 0.13
3,B3,0.82 ± 0.05
4,B4,0.61 ± 0.07
5,B5,1.23 ± 0.27

# Same assay, conditions: pH 10, room temperature, 60 min; ELISA binding to 3C12
row,Molecule,"Stress resistance parameter, pH 10"
1,B1,0.91 ± 0.04
2,B2,0.75 ± 0.28
3,B3,0.93 ± 0.05
4,B4,1.13 ± 0.19
5,B5,1.16 ± 0.37

# Same assay, conditions: storage at 4° C. for one week; ELISA binding to 3C12
row,Molecule,"Stress resistance parameter, Temperature (° C.) 4"
1,B1,0.71 ± 0.11
2,B2,0.70 ± 0.13
3,B3,0.86 ± 0.08
4,B4,0.46 ± 0.08
5,B5,0.46 ± 0.07

# Tested on: RSV F antibody (4B9)
# Test: ELISA binding of RSV F antigen mutants, epitope III
# Settings: not given
# Procedure: (§1) To investigate the binding of the RSV F antigen mutants to antibodies recognizing different epitopes, the binding amount was determined by an ELISA method in this example.
# (§2) • 293T cells (purchased from ATCC cell bank); • Primary antibody: RSV pre-F antibody (3C12), epitope ([…] (Novoprotein, Cat. No.: DA101); • RSV pre-F antibody (7H11), epitope Quaternary (Novoprotein, Cat. No.: DA109); • RSV F antibody (11A9), epitope II (Novoprotein, Cat. No.: DA091); • RSV F antibody (4B9), epitope III (Novoprotein, Cat. No.: DA110); • RSV pre-F antibody (7E11), epitope V (Cat. No.: DA119); • Standard: RSV-pre-F trimer protein (Novoprotein, Cat. No.: DRA230); • Secondary antibody: peroxidase AffiniPure goat anti-human IgG (H+L) (Yeasen, Cat. No.: N/A); • Experimental group: mRNA vaccines after screening in Example 5;
# (§3) Cell culture and transfection, and protein sample preparation: the experimental procedures were the same as in Example 3.
# (§4) Detection of antigen expression by ELISA: the experimental procedures were the same as in Example 5.
# (§5) In the present application, the binding of different mutant antigens to antibodies recognizing different epitopes was detected by ELISA, and the strength of the binding of the antigens to the antibodies was measured by the binding amount. (1) The RSV pre-F antibody (3C12) recognizing the epitope Φ binds only to the F protein in the pre-fusion conformation; (2) the RSV pre-F antibody (7H11) recognizes the epitope Quaternary (spanning both epitopes IV and V) and specifically binds to the F protein in the pre-fusion conformation; (3) the RSV F antibody (11A9) recognizing the epitope II can recognize both the pre-fusion and post-fusion conformations of the F protein; (4) the RSV F antibody […] recognizing the epitope III preferentially recognizes the pre-fusion conformation and has relatively weak binding activity for the post-fusion conformation; (5) the RSV pre-F antibody (7E11) recognizing the epitope V binds only to the F protein in the pre-fusion conformation.
row,Molecule,"ELISA binding amount, Epitope III, RSV F antibody (4B9) [ng/mL]"
1,B1,358
2,B2,6529
3,B3,534
4,B4,4655
5,B5,3494

# Same assay, conditions: antibody 4B9, relative to PC-RSV-064
row,Molecule,"Binding amount to antibody/binding amount of PC-RSV-064 to antibody, Epitope III"
1,B1,0.12
2,B2,2.28
3,B3,0.19
4,B4,1.62
5,B5,1.22

# Tested on: RSV F antibody (11A9)
# Test: ELISA binding of RSV F antigen mutants, epitope II
# Settings: not given
# Procedure: as §1, §2, §3, §4, §5
row,Molecule,"ELISA binding amount, Epitope II, RSV F antibody (11A9) [ng/mL]"
1,B1,203
2,B2,4610
3,B3,336
4,B4,2255
5,B5,2474

# Same assay, conditions: antibody 11A9, relative to PC-RSV-064
row,Molecule,"Binding amount to antibody/binding amount of PC-RSV-064 to antibody, Epitope II"
1,B1,0.10
2,B2,2.20
3,B3,0.16
4,B4,1.07
5,B5,1.18

# Tested on: RSV pre-F antibody (7H11)
# Test: ELISA binding of RSV F antigen mutants, epitope Quaternary
# Settings: not given
# Procedure: as §1, §2, §3, §4, §5
row,Molecule,"ELISA binding amount, Epitope Quaternary, RSV pre-F antibody (7H11) [ng/mL]"
1,B1,29
2,B2,922
3,B3,39
4,B4,2873
5,B5,3722

# Same assay, conditions: antibody 7H11, relative to PC-RSV-064
row,Molecule,"Binding amount to antibody/binding amount of PC-RSV-064 to antibody, Epitope Quaternary"
1,B1,0.01
2,B2,0.26
3,B3,0.01
4,B4,0.80
5,B5,1.03
